Two molecules from paper PMC12203944 can be followed below.

Assay [1] concerns the target c-Myc^1-331 labelled at the four N-terminal sites in the MB0–MBII region (fluorescence anisotropy). As to the kind of experiment: fluorescence polarisation; steady-state fluorescence anisotropy of the A488 dye on c-Myc in the donor-only samples with unlabeled AurA, same plates as for the lifetime measurements; excitation 470 nm, emission 516 nm; fit to a 1:1 binding model. (In general: Polarisation of emitted light reports the rotation of a fluorescent probe.)

For assay [2], the target named is c-Myc^1-88 labelled with A488 on C70, phosphorylated on T58 and S62 (UniProt P01106). The assay is described as above.
For assay [3], the target named is c-Myc^1-331 single-cysteine construct C70, labelled with Alexa 488, phosphorylated on T58 and S62. As to the kind of experiment: FRET or BRET; time-resolved fluorescence lifetime plate reader; Alexa 488-labelled c-Myc constant at 50 nM, DABCYL-labelled AurA titrated 0-12.8 uM; 384-well plates, room temperature, at least 30 min. On the technique in general: In BRET a luciferase serves as donor, and the signal depends on an acceptor being close.

The target in assay [4] is c-Myc^1-331 labelled at the four N-terminal sites in the MB0–MBII region (FRET). The description is as above.

As a reminder, the Kd is the constant that tells how readily two partners part at equilibrium. A high value points to lower affinity. As for “Aurora A kinase domain (AurA^122-403), unlabeled (from UniProt O14965 122-403) (domain or fragment)”, the dissociation constant Kd in assay [1] fell in the range of 2000 to 3000 nM. In addition, the fold enhancement of binding affinity over unphosphorylated c-Myc 1-88 in assay [2] stood at 3 fold.

B1: Aurora A kinase domain (AurA^122-403), cysteine-lite, labelled with dabcyl acceptor (domain or fragment)
chain: ESKKRQWALEDFEIGRPLGKGKFGNVYLAREKQSKFILALKVLFKAQLEKAGVEHQLRREVEIQSHLRHPNILRLYGYFHDATRVYLILEYAPLGTVYRELQKCSKFDEQRTATYITELANALSYCHSKRVIHRDIKPENLLLGSAGELKIADFGWSVHAPSSRRTTLSGTLDYLPPEMIEGRMHDEKVDLWSLGVLCYEFLVGKPPFEANTYQETYKRISRVEFTFPDFVTEGARDLISRLLKHNPSQRPMLREVLEHPWITANSSKPSNSQNKESASKQS
modifications: DABCYL-Plus C2 maleimide on the cysteine introduced by L225C
For B1, the fold enhancement of binding affinity over unphosphorylated c-Myc 1-331 in assay [3] was determined as 2 fold. This molecule displayed a Kd in assay [4] of 2000 to 3000 nM.
